Data published in patent publication US20240082402A1 (ELPIS BIOPHARMACEUTICALS, published 2024).
One block for each binder: values may come before it.

How the values were obtained:
[1] = molecular target: T1, full-length human CD19 on transfected K562 cells (human, UniProt P15391 20-556); test: FACS, bispecific scFv at 200 nM on CD19 K562 cells, Alexa Fluor 647 anti-His detection, % positive cells
T1 construct: whole, on cells; K562 clone transfected with pCMV6-Entry; also called CD19 K562; CD19/K562; not shown: flag or Myc tag at the C-terminus
T1 sequence (looked up): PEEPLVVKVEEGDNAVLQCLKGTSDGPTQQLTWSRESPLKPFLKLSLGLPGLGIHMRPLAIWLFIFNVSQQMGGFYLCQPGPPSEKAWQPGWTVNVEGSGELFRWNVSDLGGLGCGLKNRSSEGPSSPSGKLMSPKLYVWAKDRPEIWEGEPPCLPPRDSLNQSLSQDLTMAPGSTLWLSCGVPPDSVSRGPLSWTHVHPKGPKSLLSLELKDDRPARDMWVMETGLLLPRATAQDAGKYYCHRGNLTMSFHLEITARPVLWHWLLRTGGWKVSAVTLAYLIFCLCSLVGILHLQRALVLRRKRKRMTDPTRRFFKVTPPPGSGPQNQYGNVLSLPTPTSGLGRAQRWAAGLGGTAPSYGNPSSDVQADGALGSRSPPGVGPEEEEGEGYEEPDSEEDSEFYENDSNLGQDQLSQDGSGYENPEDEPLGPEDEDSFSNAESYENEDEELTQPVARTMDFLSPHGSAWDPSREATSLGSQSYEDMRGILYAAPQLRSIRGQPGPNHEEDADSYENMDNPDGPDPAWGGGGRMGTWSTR
Protocol: (§1) Cells were spun down at 1300 rpm for 5 minutes at 4° C. to remove unbound antibodies. Cells were then washed once with 200 iaL of PBS per well. […] Samples were then spun down at 1300 rpm for 5 minutes at 4° C. and washed twice with 200uL of 1×PBS per well. The resultant samples were reconstituted in 200 uL of 1×PBS and read on Attune™ NxT Flow Cytometer.

[2] = molecular target: human CD19 and human CD22 co-expressed on transfected K562 cells (human, UniProt P15391 20-556; P20273 20-847); test: cell-based or functional assay
[3] = molecular target: full-length human CD22 on transfected K562 cells (human, UniProt P20273 20-847); test: cell-based or functional assay
[4] = molecular target: T1, full-length human CD19 on transfected …; test: cell-based or functional assay
[5] = molecular target: T1, full-length human CD19 on transfected …; test: FACS, scFv at 200 nM on CD19 K562 cells, Alexa Fluor 647 anti-His detection, % positive cells
Protocol: as §1

B1: EPC-001-8 (bispecific scFv) (bispecific antibody)
scFv: EVQLVQSGGGVVQPGKSLRLSCAASGFTFSSYGMHWVRQAPGKGLEWVAVIWYDGSNKYYADSVKGRFTISRDNSKNTLYLQMNSLRAEDTAVYYCARDGWTGFDYWGQGTTVTVSSGGGGSGGGGSGGGGSEIVLTQSPATLSVSPGEGVTLSCRASQSVSSNLAWYQQRPGQAPRLLIYGASIKATDVPDRFSGGGSGTDFTLSISNLQSEDFAVYYCQQYHTWPPVTFGGGTKVEIKGSTSGSGKPGSGEGSTKGQVQLQQWGAGLLKPSETLSLTCAVYGGSFSGYYWTWIRQPPGKGLEWIGEINHGGSSNYNPSLKSRVTISVDTSKKQFSLNLNSVTAADTAVYYCARGLGYRSGWYEVENAFDIWGQGTMVTVSSGGGGSGGGGSGGGGSQPVLTQPPSVSVAPGQTARITCGGNKIESRSVHWYQQKPGQAPVLVVYDDGARPSGIPERLSGSNSGDTATLTISRVEPGDEADYYCQVWDGSSVIFGGGTKLTVLDYKDDDDKGGHHHHHH
notes: Expressed in E. coli periplasm, Ni-purified
binding result [1]: binds

B2: EPC-001-19 (bispecific CAR; G4S linker; co-expressed with EGFR), on transduced human T cells (other)
chain: EVQLVQSGAEVKKPGASVKVSCKASGYTFTSYGISWVRQAPGQGLEWMGWISAYNGNTNYAQKLQGRVTMTTDTSTSTAYMELRSLRSDDTAVYYCARDYGDPSGDDYWGQGTLVTVSSGGGGSGGGGSGGGGSEIVLTQSPATLSVSPGEGVTLSCRASQSVSSNLAWYQQRPGQAPRLLIYGASIKATDVPDRFSGGGSGTDFTLSISNLQSEDFAVYYCQQYHTWPPVTFGGGTKVEIKGGGGSQVQLQQWGAGLLKPSETLSLTCAVYGGSFSGYYWTWIRQPPGKGLEWIGEINHGGSSNYNPSLKSRVTISVDTSKKQFSLNLNSVTAADTAVYYCARGLGYRSGWYEVENAFDIWGQGTMVTVSSGGGGSGGGGSGGGGSQPVLTQPPSVSVAPGQTARITCGGNKIESRSVHWYQQKPGQAPVLVVYDDGARPSGIPERLSGSNSGDTATLTISRVEPGDEADYYCQVWDGSSVIFGGGTKLTVLESKYGPPCPPCPMFWVLVVVGGVLACYSLLVTVAFIIFWVKRGRKKLLYIFKQPFMRPVQTTQEEDGCSCRFPEEEEGGCELRVKFSRSADAPAYQQGQNQLYNELNLGRREEYDVLDKRRGRDPEMGGKPRRKNPQEGLYNELQKDKMAEAYSEIGMKGERRRGKGHDGLYQGLSTATKDTYDALHMQALPPR
IFNγ/Granzyme B Double Positive Cell % (CD4+) [2]: 3.01% | IFNγ/Granzyme B Double Positive Cell % (CD8+) [2]: 74.9% | IFNγ/Granzyme B Double Positive Cell % (CD4+) [3]: 0.92% | IFNγ/Granzyme B Double Positive Cell % (CD8+) [3]: 68.5% | IFNγ/Granzyme B Double Positive Cell % (CD4+) [4]: 10.9% | IFNγ/Granzyme B Double Positive Cell % (CD8+) [4]: 82%

B4: EPC-001-10 (bispecific scFv) (bispecific antibody)
scFv: EVQLVQSGAEVKKPGASVKVSCKASGYTFTSYGISWVRQAPGQGLEWMGWISAYNGNTNYAQKLQGRVTMTTDTSTSTAYMELRSLRSDDTAVYYCARDYGDPSGDDYWGQGTLVTVSSGGGGSGGGGSGGGGSEIVLTQSPATLSVSPGEGVTLSCRASQSVSSNLAWYQQRPGQAPRLLIYGASIKATDVPDRFSGGGSGTDFTLSISNLQSEDFAVYYCQQYHTWPPVTFGGGTKVEIKGSTSGSGKPGSGEGSTKGQVQLQQWGAGLLKPSETLSLTCAVYGGSFSGYYWTWIRQPPGKGLEWIGEINHGGSSNYNPSLKSRVTISVDTSKKQFSLNLNSVTAADTAVYYCARGLGYRSGWYEVENAFDIWGQGTMVTVSSGGGGSGGGGSGGGGSQPVLTQPPSVSVAPGQTARITCGGNKIESRSVHWYQQKPGQAPVLVVYDDGARPSGIPERLSGSNSGDTATLTISRVEPGDEADYYCQVWDGSSVIFGGGTKLTVLDYKDDDDKGGHHHHHH
notes: as for B1
binding result [1]: binds

B5: EPC-001-5 (bispecific antibody)
tandem scFv, anti-CD19 scFv - linker - anti-CD22 scFv - Flag - His: QVQLQQWGAGLLKPSETLSLTCAVYGGSFSGYYWTWIRQPPGKGLEWIGEINHGGSSNYNPSLKSRVTISVDTSKKQFSLNLNSVTAADTAVYYCARGLGYRSGWYEVENAFDIWGQGTMVTVSSGGGGSGGGGSGGGGSQPVLTQPPSVSVAPGQTARITCGGNKIESRSVHWYQQKPGQAPVLVVYDDGARPSGIPERLSGSNSGDTATLTISRVEPGDEADYYCQVWDGSSVIFGGGTKLTVLGGGGSGGGGSGGGGSGGGGSQVQLVQSGAEVKRPGASVKVSCKASGYTFTSYGISWVRQAPGQGLEWMGWISAYNGNTNYAQKLQGRVTMTTDTSTSTAYMELRSLRSDDTAVYYCARDPGIAVAGTVDYWGQGTLVTVSSGGGGSGGGGSGGGGSEIVMTQSPATLSVSPGEGVTLSCRASQSVSSNLAWYQQRPGQAPRLLIYGASIKATDVPDRFSGGGSGTDFTLSISNVQSEDFAVYYCQQYHTWTPVTFGGGTKVEIKDYKDDDDKGGHHHHHH
notes: also called EPC-001-5 (bispecific scFv)
binding result [1]: binds

B6: EPC-001-9 (bispecific scFv) (bispecific antibody)
scFv: QVQLQQWGAGLLKPSETLSLTCAVYGGSFSGYYWTWIRQPPGKGLEWIGEINHGGSSNYNPSLKSRVTISVDTSKKQFSLNLNSVTAADTAVYYCARGLGYRSGWYEVENAFDIWGQGTMVTVSSGGGGSGGGGSGGGGSQPVLTQPPSVSVAPGQTARITCGGNKIESRSVHWYQQKPGQAPVLVVYDDGARPSGIPERLSGSNSGDTATLTISRVEPGDEADYYCQVWDGSSVIFGGGTKLTVLGGGGSGGGGSGGGGSGGGGSEVQLVQSGAEVKKPGASVKVSCKASGYTFTSYGISWVRQAPGQGLEWMGWISAYNGNTNYAQKLQGRVTMTTDTSTSTAYMELRSLRSDDTAVYYCARDYGDPSGDDYWGQGTLVTVSSGGGGSGGGGSGGGGSEIVLTQSPATLSVSPGEGVTLSCRASQSVSSNLAWYQQRPGQAPRLLIYGASIKATDVPDRFSGGGSGTDFTLSISNLQSEDFAVYYCQQYHTWPPVTFGGGTKVEIKDYKDDDDKGGHHHHHH
notes: as for B1
binding result [1]: binds

Next, values leading:

binding result [5]: no binding (tested: 200 nM)
B3: EPC-001-4 (scFv)
scFv (VH-linker-VL): EVQLVQSGAEVKKPGASVKVSCKASGYTFTSYGISWVRQAPGQGLEWMGWISAYNGNTNYAQKLQGRVTMTTDTSTSTAYMELRSLRSDDTAVYYCARDYGDPSGDDYWGQGTLVTVSSGGGGSGGGGSGGGGSEIVLTQSPATLSVSPGEGVTLSCRASQSVSSNLAWYQQRPGQAPRLLIYGASIKATDVPDRFSGGGSGTDFTLSISNLQSEDFAVYYCQQYHTWPPVTFGGGTKVEIK
notes: also called anti-CD22 monospecific scFv; parental anti-CD22 scFv

binding result [1]: binds
B7: EPC-001-6 (bispecific antibody)
tandem scFv, anti-CD22 scFv - linker - anti-CD19 scFv - Flag - His: QVQLVQSGAEVKRPGASVKVSCKASGYTFTSYGISWVRQAPGQGLEWMGWISAYNGNTNYAQKLQGRVTMTTDTSTSTAYMELRSLRSDDTAVYYCARDPGIAVAGTVDYWGQGTLVTVSSGGGGSGGGGSGGGGSEIVMTQSPATLSVSPGEGVTLSCRASQSVSSNLAWYQQRPGQAPRLLIYGASIKATDVPDRFSGGGSGTDFTLSISNVQSEDFAVYYCQQYHTWTPVTFGGGTKVEIKGSTSGSGKPGSGEGSTKGQVQLQQWGAGLLKPSETLSLTCAVYGGSFSGYYWTWIRQPPGKGLEWIGEINHGGSSNYNPSLKSRVTISVDTSKKQFSLNLNSVTAADTAVYYCARGLGYRSGWYEVENAFDIWGQGTMVTVSSGGGGSGGGGSGGGGSQPVLTQPPSVSVAPGQTARITCGGNKIESRSVHWYQQKPGQAPVLVVYDDGARPSGIPERLSGSNSGDTATLTISRVEPGDEADYYCQVWDGSSVIFGGGTKLTVLDYKDDDDKGGHHHHHH
notes: also called EPC-001-6 (bispecific scFv)

binding result [1]: binds
B8: EPC-001-7 (bispecific scFv) (bispecific antibody)
scFv: QVQLQQWGAGLLKPSETLSLTCAVYGGSFSGYYWTWIRQPPGKGLEWIGEINHGGSSNYNPSLKSRVTISVDTSKKQFSLNLNSVTAADTAVYYCARGLGYRSGWYEVENAFDIWGQGTMVTVSSGGGGSGGGGSGGGGSQPVLTQPPSVSVAPGQTARITCGGNKIESRSVHWYQQKPGQAPVLVVYDDGARPSGIPERLSGSNSGDTATLTISRVEPGDEADYYCQVWDGSSVIFGGGTKLTVLGGGGSGGGGSGGGGSGGGGSEVQLVQSGGGVVQPGKSLRLSCAASGFTFSSYGMHWVRQAPGKGLEWVAVIWYDGSNKYYADSVKGRFTISRDNSKNTLYLQMNSLRAEDTAVYYCARDGWTGFDYWGQGTTVTVSSGGGGSGGGGSGGGGSEIVLTQSPATLSVSPGEGVTLSCRASQSVSSNLAWYQQRPGQAPRLLIYGASIKATDVPDRFSGGGSGTDFTLSISNLQSEDFAVYYCQQYHTWPPVTFGGGTKVEIKDYKDDDDKGGHHHHHH
notes: Expressed in E. coli periplasm (pET22b, Rosetta II), Ni-purified; detected with an anti-His antibody
